From publication PMC4714889, “Dissecting the Molecular Mechanism of Nucleotide-Dependent Activation of the KtrAB K^+ Transporter” (PLoS Biology, 2016)

B1: KtrA (wild type), cytosolic RCK ring protein of the KtrAB K+ transporter from Bacillus subtilis (natural protein, UniProt O32080 1-222, looked up)
chain: MGRIKNKQFAVIGLGRFGGSICKELHRMGHEVLAVDINEEKVNAYASYATHAVIANATEENELLSLGIRNFEYVIVAIGANIQASTLTTLLLKELDIPNIWVKAQNYYHHKVLEKIGADRIIHPEKDMGVKIAQSLSDENVLNYIDLSDEYSIVELLATRKLDSKSIIDLNVRAKYGCTILAIKHHGDICLSPAPEDIIREQDCLVIMGHKKDIKRFENEGM
notes: KtrA, RCK domain protein of the KtrAB K+ transporter, Bacillus subtilis, GenBank KIX81590.1; eluted and kept with ADP or ATP; also called full-length KtrA; wild type KtrA; source: E. coli BL21(DE3), purified (anion exchange, ADP-agarose, Superdex-S200)
B2: KtrB (wild type), membrane protein of the KtrAB K+ transporter from Bacillus subtilis (natural protein)
chain: MTLQKDKVIKWVRFTPPQVLAIGFFLTIIIGAVLLMLPISTTKPLSWIDALFTAASATTVTGLAVVDTGTQFTVFGQTVIMGLIQIGGLGFMTFAVLIVMILGKKIGLKERMLVQEALNQPTIGGVIGLVKVLFLFSISIELIAALILSIRLVPQYGWSSGLFASLFHAISAFNNAGFSLWPDNLMSYVGDPTVNLVITFLFITGGIGFTVLFDVMKNRRFKTFSLHTKLMLTGTLMLNAIAMLTVFILEYSNPGTLGHLHIVDKLWASYFQAVTPRTAGFNSLDFGSMREGTIVFTLLLMFIGAGSASTASGIKLTTFIVILTSVIAYLRGKKETVIFRRSIKYPIIIKALAVSVTSLFIVFLGIFALTITEQAPFLQIVFETFSAFGTVGLTMGLTPELTTAGKCIIIVIMFIGRIGPLTFVFSFAKTEQSNIRYPDGEVFTG
notes: KtrB, membrane protein of the KtrAB K+ transporter, Bacillus subtilis, GenBank KIX81591.1; In detergent (DDM or cymal-6), or reconstituted in E. coli polar lipid liposomes for the float-up; also called KtrB wt; wild-type KtrB; source: E. coli BL21(DE3), purified (DDM extraction, Talon resin, thrombin, Superdex-200); not shown: His tag, N-terminal, cleaved
B3: KtrAΔC, C-terminal domain truncated KtrA (tandem of two N-terminal KtrA domains) (domain or fragment, Bacillus subtilis)
chain: MGRIKNKQFAVIGLGRFGGSICKELHRMGHEVLAVDINEEKVNAYASYATHAVIANATEENELLSLGIRNFEYVIVAIGANIQASTLTTLLLKELDIPNIWVKAQNYYHHKVLEKIGADRIIHPEKDMGVKIAQSLSDENVLNYLEGSKQFAVIGLGRFGGSICKELHRMGHEVLAVDINEEKVNAYASYATHAVIANATEENELLSLGIRNFEYVIVAIGANIQASTLTTLLLKELDIPNIWVKAQNYYHHKVLEKIGADRIIHPEKDMGVKIAQSLSDENVLNY
notes: KtrA N-terminal domain, Bacillus subtilis, GenBank KIX81590.1, residues 1-144 (first copy of the tandem); linker between the two N-terminal domains; KtrA N-terminal domain, Bacillus subtilis, GenBank KIX81590.1, residues 7-144 (second copy of the tandem); Lacks KtrA residues 145-222 (the whole C-terminal domain); Forms an octameric ring counted in N-terminal domains; each chain carries two of …

Columns and labels:
[1] = biological target: the molecule itself; test: crystal structure; wild-type KtrAB with ADP, 8 Å diffraction dataset; molecular replacement searches and an averaged map only (low resolution model); crystals from 100 mM Hepes pH 7.5, 1 M NaCl, 10% PEG4000, 20°C
[2] = biological target: B2; test: SEC; size-exclusion purified KtrB (wild type or mutant) mixed with an excess of KtrA (wild type, KtrAC0 or KtrAΔC), run in the presence of ATP or ADP, in detergent; SDS-PAGE of the fractions; details: both partners purified
[3] = biological target: the molecule itself; test: crystal structure; KtrAΔCB with bound ADP, data to 6 Å, molecular replacement, 4-fold and 8-fold averaging, DEN refinement; crystals from 100 mM Tris-HCl pH 8.5, 18%–22% PEG400, 100–200 mM CaCl2, 20°C

binding result [2] | Binder | binding result [1] | stoichiometry N [3] | binding result [3]
binds | B1 | binds | – | –
– | B2 | – | 2 | –
binds | B3 | – | – | binds
